For data set [1], the system named is isobutanol producing yeast strains. The data set can be described thus: Genome scale metabolic modeling (iMM904) of isobutanol yield, batch simulation. Details: species or system S. cerevisiae. The note with it: cells with 16 fewer copies of the enzyme, 36% less protein. As for the experimental part: The iMM904 metabolic reconstruction of S. cerevisiae metabolism served as the basis of the model. The model consists of a matrix of stoichiometric coefficients that represent metabolic and transport reactions encoded by 904 genes. Reactions were added as new columns to the matrix while new rows were added for additional metabolites. The native pathway for making isobutanol in the yeast mitochondria was turned off. A summary of these changes is found in Table 2 below. With these changes made, the maximum isobutanol yield from glucose in the model was approximately 0.38 g/g. If the model was altered to not produce glycerol, the yield increased to 0.41 g/g.
With more reactions than metabolites, metabolic networks have a near infinite number of solutions for any given condition. In flux balance analysis, the flux distribution is obtained by finding the solution that maximizes an objective function. […] Each flux is bounded by known limits of each reaction, though the bounds are mostly set by thermodynamic reversibility. […]
While all other reactions in the isobutanol pathway were set by reversibility only, the upper bound of flux through NKR (vnkr) was set by the kinetics of Se1 and Se2 NKR. Flux was calculated by the following equation: […]
The benefits of improving either NKR enzyme in a strain with an equal number of both was calculated to predict which enzyme was best to engineer. […]

Data set [2] can be described thus: KARI enzyme KM assay with NADH, purified enzymes. Format: biochemical, Slackia exigua. The note with it: for Vmax: 0.1 mg/mL of enzyme. As for the experimental part:
(§1) In this example, three different KARI Gen6 variant enzymes (v1, v48, and v65) and parent enzyme Se1_NKR_gen 6 were screened for their activity with NADH as cofactor. The enzymes were expressed E. coli, and resulting transformants were cultivated in shake flask fermentations as described below and samples were taken after 44h, centrifuged at 4000×g for 10 mins at 4° C. and the cell pellets were stored at −80° C. until analysis. The pellets were lysed by bead beating and the lysates were analyzed by KARI activity assay as described below using NADH and NADPH as cofactors.
(§2) KARI Enzyme Assay: The assay and no substrate control reactions were performed in triplicate for each sample. For the KM assay, the reaction samples comprised 100 mM potassium phosphate, pH 6.8 or 7, 10 mM MgCl2, 1 mM DTT, 200 μM NADH, 0-10 mM 2-acetolactate, and 0.1 mg/mL of enzyme. For the Ki assay, the reaction samples comprised 100 mM potassium phosphate, pH 6.8 or 7, 10 mM MgCl2, 1 mM DTT, 200 μM NADH, 1 mM 2-acetolactate, 0-40 mM R-DHIV, and 0.1 mg/mL of enzyme. For the no substrate controls, the 2-acetolactate was substituted with water. 10 μL of each lysate were transferred into a 96 well half area assay plate. The reaction was started with 90 μL of reaction buffer to each well using a multichannel pipette. The samples were mixed immediately. The samples were read at 340 nm every 10 seconds for 5 minutes.
(§3) The purified enzymes encoded by Se1_NKR_Gen6 (Se1), Se1_NKR_v1 (v1), Se1_NKR_v48 (v48), and Se1_NKR_v65 (v65) under two conditions: 33° C. at pH 6.8 and 30° C. at pH 7 were characterized.

Data set [3] can be described thus: KARI enzyme Ki assay (product inhibition) with NADH, purified enzymes. Format: biochemical, Slackia exigua. The note with it: for IC50 / Ki: 1 mM 2-acetolactate, 0-40 mM R-DHIV. As for the experimental part:
as §1, §2, §3
In order to determine the impact of all three parameters (kcat, KM, and Ki) to more closely determine the impact of the new variants in vivo, the catalytic efficiency for each enzyme using the KM apparent, which is equal to KM*(1+[product]/Ki), was calculated. […] At this DHIV concentration level, in vivo, at 33° C., pH 6.8, m48 would be 157%, Se1_NKR_v1 would be 139%, and Se1_NKR_v65 would be 118% improved compared to Se1_NKR. For example, in vivo, cells expressing Se1_NKR-v48, it would be expected that 16 fewer copies of the enzyme could potentially achieve 36% less protein while achieving 0.35 g/g yeast efficiency.

Data set [4] concerns Isobutanol Production. In words: Simple shake flask fermentation, final relative isobutanol concentration. It is filed as cell-based. The note with it: enzyme on vector, final concentration. The text has this:
This improvement in isobutanol production is expected to increase with multiple copies of the Se1_NKR_v1 variant enzyme incorporated into the host cell genome.

The mark [5] stands for this setting: generally, under the two conditions.

The values that follow come from US20260152729A1, “NOVEL NKR VARIANTS FOR INCREASED PRODUCTION OF ISOBUTANOL” (Gevo, Inc., priority 2020, published 2026).

B1: V48: Se1_NKR Gen6 variant with mutations G31A, M77I, Q330N as printed in Table 5; e.g. SEQ ID NO: 92 (protein, listed as Slackia exigua)
chain: MSVKTKEKEMAVTILYEQDVDPKVIQGLKVAIIGYGSQGHAHALNLMDSGVDVRVGLREGDSDWKTAEEAGLKVTDIDTAAEEADVIMVLVPDEVQPKVYQEHIAAHLKAGNTLAFAHGFNIHYGYIVPPEDVNVIMCAPKGPGHIVRRQFTEGSGVPDLACVQQDATGNAWDIVLSYCWGVGGARSGIIKATFAEETEEDLFGEQAVLCGGLVELVKAGFETLTEAGYPPELAYFECYHEMKMIVDLMYESGIHFMNYSISNTAEYGEYYAGPKVINEQSREAMKEILKRIQDGSFAQEFVDDCNNGHKRLLEQREAINTHPIETTGARIRSMFSWIKKEDLEHHHHHH
modifications: SITE 1..350 Se1_NKR_v48 protein
For the molecule B1, in data set [1], the “expected yield (printed: yeast efficiency)” value is on record as 0.35 g/g. Besides, in data set [2] (30° C., pH 7), the Kcat was determined as 717 s⁻¹, the Km was determined as 683 µM and the Vmax amounted to 2.11 mM/s. For the same molecule, in data set [2] (33° C., pH 6.8), the Kcat was determined as 647 s⁻¹, the Michaelis-Menten constant (Km) is 533 µM and the Vmax is 1.90 mM/s. In addition, in data set [2] (setting [5]), the “rate (kcat or VMAX), comparison of the variants” value is given as “best (highest)”. The “catalytic efficiency using KM apparent = KM*(1+[product]/Ki), compared to Se1_NKR” value in data set [3] (1 mM DHIV, 33° C., pH 6.8) is 157%. In data set [3] (30° C., pH 7), the IC50 is 2.45 mM and the affinity, expressed as Ki, was 0.996 mM. In data set [3] (33° C., pH 6.8), this molecule came in with an IC50 of 3.03 mM and a Ki of 1.05 mM. The “catalytic efficiency (KM apparent) versus increasing concentrations of DHIV (FIG. 14A-B)” value in data set [3] (both conditions (33° C., pH 6.8 and 30° C., pH 7.0)) is “highest catalytic efficiencies”. Also, the “Ki for DHIV, comparison of the variants” value in data set [3] (setting [5]) is “best (highest)”. Besides, the “Isobutanol Concentration relative to Se1_NKR control (WT)” value in data set [4] is given as 104%.

A word on the Km: it is the concentration of substrate that gives half-maximal velocity. As usually defined, the Vmax is the rate approached at saturating substrate. As a reminder, the IC50 is the midpoint of a concentration-inhibition curve. The low end stands for higher potency, the high end for lower potency. In general, Ki refers to the equilibrium dissociation constant of an inhibitor or competing ligand from its target. Higher therefore signals a looser hold on the target.
